Measured values reported in patent CN110872347A (TIANJIN TIMMUNE BIOTECH INC, dated 2020).

B1: 融合蛋白M3-E7-Fc (Fc fusion, not shown: a dimerising Fc or GST)
chain: VQLVASGGGLVPPGGSLRLSCAASGRTFNVDAMAWFRQTRGKEREFVAAISRSGGSTYYADSVKGRFSISKDNAKNTMYLQMNSLKPEDTAIYYCAAAIYWRGSYYTEGNYDYWGQRTQVTVSS
B2: 融合蛋白M3-D9-Fc (Fc fusion, not shown: a dimerising Fc or GST)
chain: VQLVETGGGLVQPGGSLRLSCAASGFTFSDYAIQWVRQAPGKGLGRVSYINSGGDTTYYADSVKGRFSIARDNAKNTVYLQMNSLKPEDTAVYYCYAGGYWGQGTQVTVSS

Target: HLA-A2/…抗原复合物 (human)
Assay: SPR, Biacore T200, antigen on SA chip, Fc fusion as analyte 1-20 nM, Bivalent Analyte model

Binder | Kd | koff | kon
B1 | 9 nM | 0.0309 s⁻¹ | 3.43e+06 M⁻¹ s⁻¹
B2 | 25 nM | 0.0171 s⁻¹ | 678000 M⁻¹ s⁻¹
